From patent publication US20090270325A1

Tests used:
[1] = target: human GHR on human 293 cells stably expressing the human GHR (human) (UniProt P10912)
[2] = target: human GHR on human 293 cells stably expressing the human GHR (human) (UniProt P10912); remark: listed apart in the source

Substance: hGH-GHR Chimera (75 kDa chimera) (from UniProt P01241)
- GH-specific luciferase reporter assay (bioactivity) [1]: 10%
- concentration for the maximal response, Stat 5 luciferase-reporter assay [2]: 50 to 250 nM
